Experimental data taken from publication PMC12381214, “Multi-state catch bond formed in the Izumo1:Juno complex that initiates human fertilization” (Nature Communications, 2025).
Positions count from the first letter of the chain named. Names and notes keep the numbering of the source.

Columns and labels:
Conditions in all cases: both partners purified
[1] = target: T1, human Juno ectodomain, wild type (Juno-His10-SpyTag-LPETGG) (human, glycosylated (sites not given); SpyTag joined by an isopeptide bond to a SpyCatcher polyprotein); assay: flow cytometry-based bead-binding assay; Juno held on 3.75 µm polystyrene beads through the ybbR AFM-handle; Izumo1 labelled with SpyCatcher-GFP, 5-fold dilution series of 7 dilutions from 100x the expected KD, 3 h, 0.1% tween 20 in TBS-G (20 mM Tris-HCl, 300 mM NaCl, 10% glycerol, pH 8.0); Hill equation fitted
T1 construct: Juno, human, ectodomain (ECD), UniProt A6ND01; the stretch between the HBM signal peptide and His10 in the printed construct; the printed construct has a D between the signal's ...YIYA and G20 that may stay on the mature protein; also called Folr4; Izumo1r; source: Sf9 (ExpiSF) cells, baculovirus, secreted, purified (Ni resin, SEC); not shown: HBM secretion signal peptide, N-terminal, cleaved; …

[2] = target: T2, human Juno ectodomain H177Q, infertility-associated variant (JunoH177Q-His10-SpyTag-LPETGG) (human, H177Q (stands in the printed letters), glycosylated (sites not given); SpyTag joined by an isopeptide bond to a SpyCatcher polyprotein); assay: as above
T2 construct: Juno, human, ectodomain (ECD), UniProt A6ND01, natural variant H177Q found in patients; also called HBM-JunoH177Q-His10-SpyTag-LPETGG; source: Sf9 (ExpiSF) cells, baculovirus, secreted, purified (Ni resin, SEC); not shown: HBM secretion signal peptide, N-terminal, cleaved; His10, C-terminal, kept; SpyTag, C-terminal, kept; LPETGG sortase motif, C-terminal, kept

[3] = target: T1, human Juno ectodomain, wild type …; assay: AFM single-molecule force spectroscopy (constant speed); Izumo1 on the cantilever and Juno on the cover glass, each covalently held by its C-terminus through a ddFLN4-ELP-ybbR handle; contact 0.2 s, retraction at 800, 1600, 3200, 6400 nm·s^−1; PBS pH 7.4

T1 sequence (chain, as listed by the source): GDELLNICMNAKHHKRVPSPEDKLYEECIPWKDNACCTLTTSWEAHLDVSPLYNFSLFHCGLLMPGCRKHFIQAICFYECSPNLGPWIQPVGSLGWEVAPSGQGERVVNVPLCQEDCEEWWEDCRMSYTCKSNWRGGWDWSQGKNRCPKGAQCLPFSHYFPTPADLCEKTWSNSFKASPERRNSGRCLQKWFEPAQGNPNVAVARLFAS
T2 sequence (chain, as listed by the source with the stated changes): as the sequence (chain, as listed by the source) above, with H158Q counted along it

B1: human Izumo1 ectodomain, wild type (Izumo1-His10-SpyTag-LPETGG) (domain or fragment)
chain: CVICDPSVVLALKSLEKDYLPGHLDAKHHKAMMERVENAVKDFQELSLNEDAYMGVVDEATLQKGSWSLLKDLKRITDSDVKGDLFVKELFWMLHLQKETFATYVARFQKEAYCPNKCGVMLQTLIWCKNCKKEVHACRKSYDCGERNVEVPQMEDMILDCELNWHQASEGLTDYSFYRVWGNNTETLVSKGKEATLTKPMVGPEDAGSYRCELGSVNSSPATIINFHVTVLP
modifications: glycosylated (sites not given); SpyTag joined by an isopeptide bond to a SpyCatcher polyprotein
notes: Izumo1, human, ectodomain (ECD), UniProt Q8IYV9; the stretch between the HEM signal peptide and His10 in the printed construct; also called HEM-Izumo1-His10-SpyTag-LPETGG; Izumo1-GFP; source: Sf9 (ExpiSF) cells, baculovirus, secreted, purified (Ni resin, SEC); not shown: HEM secretion signal peptide, N-terminal, cleaved; His10, C-terminal, kept; SpyTag, C-terminal, kept; LPETGG sortase motif, …
[1]
  Kd: 45 nM
[2]
  Kd: 64 nM

B2: human Izumo1 ectodomain H157A (Izumo1H157A-His10-SpyTag-LPETGG) (domain or fragment)
chain: B1 chain with H136A
modifications: glycosylated (sites not given); SpyTag joined by an isopeptide bond to a SpyCatcher polyprotein
notes: Izumo1, human, ectodomain (ECD), UniProt Q8IYV9, with H157A; also called HEM-Izumo1H157A-His10-SpyTag-LPETGG; source: Sf9 (ExpiSF) cells, baculovirus, secreted, purified (Ni resin, SEC); not shown: HEM secretion signal peptide, N-terminal, cleaved; His10, C-terminal, kept; SpyTag, C-terminal, kept; LPETGG sortase motif, C-terminal, kept
[3]
  binding result: binds

B3: human Izumo1 ectodomain K150A (Izumo1K150A-His10-SpyTag-LPETGG) (domain or fragment)
chain: B1 chain with K129A
modifications: glycosylated (sites not given); SpyTag joined by an isopeptide bond to a SpyCatcher polyprotein
notes: Izumo1, human, ectodomain (ECD), UniProt Q8IYV9, with K150A; also called HEM-Izumo1K150A-His10-SpyTag-LPETGG; source: Sf9 (ExpiSF) cells, baculovirus, secreted, purified (Ni resin, SEC); not shown: HEM secretion signal peptide, N-terminal, cleaved; His10, C-terminal, kept; SpyTag, C-terminal, kept; LPETGG sortase motif, C-terminal, kept
[1]
  Kd: 110 nM

B4: human Izumo1 ectodomain E71A (Izumo1E71A-His10-SpyTag-LPETGG) (domain or fragment)
chain: B1 chain with E50A
modifications: glycosylated (sites not given); SpyTag joined by an isopeptide bond to a SpyCatcher polyprotein
notes: Izumo1, human, ectodomain (ECD), UniProt Q8IYV9, with E71A; also called HEM-Izumo1E71A-His10-SpyTag-LPETGG; source: Sf9 (ExpiSF) cells, baculovirus, secreted, purified (Ni resin, SEC); not shown: HEM secretion signal peptide, N-terminal, cleaved; His10, C-terminal, kept; SpyTag, C-terminal, kept; LPETGG sortase motif, C-terminal, kept
[3]
  binding result: binds

B5: human Izumo1 ectodomain R160A (Izumo1R160A-His10-SpyTag-LPETGG) (domain or fragment)
chain: B1 chain with R139A
modifications: glycosylated (sites not given); SpyTag joined by an isopeptide bond to a SpyCatcher polyprotein
notes: Izumo1, human, ectodomain (ECD), UniProt Q8IYV9, with R160A; also called HEM-Izumo1R160A-His10-SpyTag-LPETGG; source: Sf9 (ExpiSF) cells, baculovirus, secreted, purified (Ni resin, SEC); not shown: HEM secretion signal peptide, N-terminal, cleaved; His10, C-terminal, kept; SpyTag, C-terminal, kept; LPETGG sortase motif, C-terminal, kept
[3]
  binding result: binds
